The chains are these.
B1: antibody 324 (antibody, V domains shown)
VH: QVQLQESGPGLVKPSGTLSLTCAVSGGSISSSNWWSWVRQPPGKGLEWIGEIYHSGSTNYNPSLKSRVTISVDNSKNQFSLKLSSVTAADTAVYYCARESVAAAGISYYYYGMDVWGQGTTVTVSS
VL: EIVLTQSPGTLSLSPGERATLSCRASQSVSGRYLAWYQQKPGQAPRLLIYGASSRATGIPDRFSGSGSGTDFTLTISRLEPEDFAVYYCQHYGSSPGTFGQGTRLEIK
B2: antibody 328 (antibody, V domains shown)
VH: B1 VH
VL: DIQMTQSPSSLSASVGDRVTITCRASQGIRNDLGWYQQKPGKAPKRLIYAASSLQSGVPSRFSGSGSGTEFTLTVSGLQPEDFATYYCLQYNSSPLTFGGGTKVEIK
B3: antibody 316 (antibody, V domains shown)
VH: QVHLVESGGGVVQPGRSLRLSCAASGFTLTAYAMHWVRQAPGKRLEWVALISYDGSVKKYADSVKGRITVSGDTSTNTLHLQMNSLRADDTAVYYCVRGGVSGPNSFDLWGQGTMVTVSS
VL: DVVMTQSPLSLPVTLGQPASMSCRSSQSLEYSDGNTYVNWFHQRPGQSPRRLIYKVSYRDSGVPDRFSGSGSGTDFTLQISRVEAEDVGIYYCMQGTHWPVTFGQGTKVEIK
B4: antibody 327 (antibody, V domains shown)
VH: QVQLVESGGGVVQPGRSLRLSCAASGFNLSNYAMHWVRQASGKGLEWVSLISYDGSIKYYTDSVKGRFTVSGDNSKNTLFLQMNSLRPDDSALYYCVRGGVSGPNSFDMWGQGTTVTVSS
VL: B3 VL with M21I, E30V, H42Q, K55Q, Y58I, D60A, T77A, Q79K
B5: antibody 317 (antibody, V domains shown)
VH: QVQLVQSGAEVKKPGASVKVSCKVSGYTLTELSMHWVRQAPGKGLEWMGGFDPEDGETIYAQKFQGRVTMTEDTSTDTAYMELSSLRSEDTAVYYCASSPAAAGTSQYYYYYGMDVWGQGTTVTVSS
VL: not shown
B6: antibody 331 (antibody, V domains shown)
V domain 1: QITLKESGPTLVKPTETLTLTCSFSGFSLTKTGEAAGWIRQAPGRALEWVTVIFWDDDKRYSPSLQNRISVTKDTSKNQVVLRMTNVARFDTGTYFCWAMGGPGKEYFGQGTLVAVSS
V domain 2: QSVLTQPPSVSGAPGQRVTISCTGTSSSIGPYSDVHWYQHVSGKAPRLLIFGNSNRPSGVPDRFSGSKSGTSASLVIAGLQAEDEADYYCQSYDSSLGEIYVFGTGTTVTVL
B7: antibody 339 (antibody, V domains shown)
V domain 1: B6 V domain 1 with K31R, N67S, I69L, S70T, R83T, G93A, L113Q
V domain 2: B6 V domain 2
B8: antibody 320 (antibody, V domains shown)
VH: QVQLVQSGAEVKKPGASVKVSCKASGYTFTSYGISWVRQAPGQGLEWMGWISAYNGNTNYAQKLQGRVTMTTDTSTRTAYMELRSLRSDDTAVYYCARVGCYYDSSGYSCAENFQHWGQGTLVTVSS
VL: QSVLTQPPSVSGAPGQRVTISCTGSSSNIGAGYDVHWYQQLPGTAPKLLIYGNSNRPSGVPDRFSGSKSGTSASLAITGLQAEDEADYYCQSYDSSLSALFGGGTKLTVL
B9: antibody 323 (antibody, V domains shown)
VH: QVQLVQSGAEVKKPGASVKVSCKVSGYTLTELSMHWVRQAPGKGLEWMGGFDPEDGETIYAQKFQGRVTMTEDTSTDTAYMELSSLRSEDTAVYYCATSTIFAPGGWFDPWGQGTLVTVSS
VL: QSALTQPASVSGSPGQSITISCTGTSSDVGSYNLVSWYQQHPGKAPKLMIYEVSKRPSGVSNRFSGSKSGNTASLTISGLQAEDEADYYCCSYAGSTHYVFGTGTKVTVL
B10: antibody 326 (antibody, V domains shown)
VH: QITLKESGPTLVKPTQTLTLTCTFSGFSLNTSGVGVGWIRQPPGKALEWLSLIFWNDDKRYSPSLRSRLTITKDTSKNQVVLTMTNMDPVDTATYFCAHRNSGWSLKFDSWGQGSLVTVSA
VL: DIQMTQSPSSVSASVGDRVTITCRARQGISSWLVWYQQKPGKAPKLLIFGASSLQSGVPSRFNASGTGTEFTLTISSLQPEDFATYYCQQADSFPITFGQGTRLEIK
B11: antibody 329 (antibody, V domains shown)
VH: EVQLVESGGGLVQPGGSLRLSCAASGFTFSSYWMHWVRQAPGKGLVWVSRINSDGSSTSYADSVKGRFTISRDNAKNTLYLQMNSLRAEDTAVYYCAREGIVATITLDYWGQGTLVTVSS
VL: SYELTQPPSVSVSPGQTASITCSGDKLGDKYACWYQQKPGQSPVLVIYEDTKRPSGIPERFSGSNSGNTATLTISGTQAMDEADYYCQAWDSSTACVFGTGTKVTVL
B12: antibody 380 (antibody, V domains shown)
VH: QVQLVESGGGVVQPGRSLRLSCAASGFTLKNYGMHWVRQAPGKGLEWVIVLSFDGSDEYKADSVRGRFTVSRDNSKNTLFLQMNSLRPDDTAVYYCAREQPTMIEGGRGPFDIWGQGTMVTVSS
VL: EVVMTQSPATLSVSPGDRATLSCRASQGVNSNLAWYQQKPGQAPRLLIYAASTRATGIPARFSASGSGTHFTLTISSLQSEDFAVYYCLQYNNWPPWTFGQGTKLEIK
B13: antibody 379 (antibody, V domains shown)
VH: QVQLQESGPGLVKPSQTLSLTCTVSGGSISSGGYYWSWIRQHPGKGLEWIGYIYYSGSTYYNPSLKSRVTISVDTSKNQFSLKLSSVTAADTAVYYCARGPLDFWSGYFRLRYFDSWGQGTLVTVSS
VL: QSALTQPASVSGSPGQSITISCTGTSSDVGGYNYVSWYQQHPGKAPKLMIYDVTNRPSGVSNRFSGSKSGNTASLTISGLQAEDEADYYCSSYTSSSTCVFGTGTKVTVL
B14: anti-SARS-CoV-2 antibody 970 (antibody, V domains shown)
VH: EVQLVESGGGLVQPGGSLRLSCAASGFTFSSYWMSWVRQAPGKGLEWVANINKDGSEKYYVDSVKGRFTISRDNAKNSLYLQMNSLRAEDTAVYFCARDYRYFDWLLSQIDLEIDYFDYWGQGTLVTVSS
VL: not shown
B15: anti-SARS-CoV-2 antibody 1075 (antibody, V domains shown)
VH: QVQLVQSGAEVKKPGASVKVSCKVSGYTLIELSMHWVRQAPGKGLEWMGGFDPEDGETIYAQKFQGRVTMTEDTSTDTAYMELSSLRSEDTAVYYCATEWAYYGSGSYLGYWGQGTLVTVSS
VL: EIVMTQSPATLSVSPGERATLSCRASQSVSSNLAWFQQKPGQAPRLLIYGASTRVTVIPARFSGSGSGTEFTLTISSLQSEDFAVYYCQQYNNWPRTFGQGTKVEIKR
B16: anti-SARS-CoV-2 antibody 1149 (antibody, V domains shown)
VH: QVQLVQSGAEVKKPGASVKVSCKASGYTFASYDINWVRQATGQGPEWMGWMIPNIGNTGYAQKFQGRVTMTRNTSISTAYMELSSLTSEDTAVYYCARVSRLFNDFGLRHEAPVDFWGQGTRVTVSS
VL: QSVLTQPPSVSGAPGQRVTISCTGSSSNIGAGYDVHWYQQLPGTAPKLLIYGYSSRPSGVPDRFSGSKSGTSASLAITGLQAEDEADYYCQSYDSSLSVLFGGGTKLTVLG
B17: anti-SARS-CoV-2 antibody 923 (antibody, V domains shown)
VH: EVQLVESGGGVVRPGGSLRLSCAASGFIFDDYDMTWVRQAPGKGLEWVSGISWNGGNTGYADSVKGRFTISRDNAKNSLYLQMNSLRAEDTALYHCAVIMSPIPRYSGYDWAGGAFDIWGQGTMVTVSS
VL: SSELTQDPAVSVALGQTVRITCQGDSLRSYYASWYQQKPGQVPILVIYDKNNRPSGIPDRFSGSSSGNTASLTITGAQAEDEADYYCNSRDSSGNAVVFGGGTKLTVLG
B18: anti-SARS-CoV-2 antibody 1139 (antibody, V domains shown)
VH: QVQLVQSGAEVKKPGASVKVSCKASGYTFSSYEINWVRQATGQGLEWMGRMTLNSGNTGYAQNFQGRVTMTRDTSISTAYMELSGLRSEDTAVYYCARMRSGWPTHGRPDDYWGQGTLVTVSS
VL: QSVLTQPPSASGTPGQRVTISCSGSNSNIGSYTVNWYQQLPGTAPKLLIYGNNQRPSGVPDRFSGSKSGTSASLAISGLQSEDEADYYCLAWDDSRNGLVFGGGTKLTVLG
B19: anti-SARS-CoV-2 antibody 1015 (antibody, V domains shown)
VH: EVQLVESGGGLVQPGGSLRLSCAASGFTFSSYWMHWVRQAPGKGLVWVSHINSDGSSTSYADSVKGRFTISRDNAKNTLYLQMNSLRAEDTAVYYCARGLRYFDLDVWGQGTTVTVSS
VL: QSVLTQPPSVSEAPRQRVTISCSGSSSNIGNNAVNWYQQLPGKAPKLLIFYDDLLPSGVSDRFSGSKSGTSASLAISGLQSEDEADYYCAAWDDSLNGGVFGGGTKLTVLG
B20: anti-SARS-CoV-2 antibody 1037 (antibody, V domains shown)
VH: QITLKESGPTLVKPTQTLTLTCTFSGFSLSTSGVGVGWIRQPPGKALEWLALIYWDDDKRYSPSLKSRLTITKDTSKNQVVLTMTNMDPVDTATYYCAHHTITRINDYWGQGTLVTVSS
VL: QSALTQPASVSGSPGQSITISCTATSSDVGAYNYVSWYQQHPGKAPKLMIYDVSKRPSGVSNRFSGSKSGNTASLTISGLQAEDEADYYCSSYTSSSTVFGGGTKLTVLG
B21: anti-SARS-CoV-2 antibody 851 (antibody, V domains shown)
VH: QITLKESGPTLVKPTQTLTLTCTFSGFSLSTNGVGMGWIRQPPGKALEWLALIYWDDDQFYSPSLKSRLTITRDTSKNQVVLTMTNMDPVDTATYYCAQAFYESFGFYSWGQGTLVTVSS
VL: NFMLTQPHSVSESPGKTVIISCTRSIGSIASNYVQWYQQRPGSAPTIVVFEDNERPSGVPDRFSGSIDRSSNSASLTISGLKTEDEADYYCQSYDGSSELVFGGGTKLTVLG

Numbering of substitutions follows the chain as printed. Where only a bound is given, the exact number is not on record here.

For one assay, the target named is SARS-CoV-2 full length Spike protein, wild type (SARS-CoV-2, UniProt P0DTC2 14-1208).
Assay: not given
With B1, the “bead binding signal (fold over isotype)” value amounted to 1.13 fold over isotype. On the same count and under the same terms, next, B2: 1.2 fold over isotype. The same measure, in the same setting: then B3, with 442 fold over isotype; and B4, with 413 fold over isotype. Still for that read-out and setting: then B5, with 890 fold over isotype; and B6, with 850 fold over isotype.

Turning to B7, the “bead binding signal (fold over isotype)” value is 874 fold over isotype. Same read-out and setting: next, B8: 1200 fold over isotype. Still for that read-out and setting: next, B9: 994 fold over isotype; B10: 193 fold over isotype.

As to B11, the “bead binding signal (fold over isotype)” value stood at 497 fold over isotype.

For the next assay, the target named is SARS-CoV Spike protein (SARS-CoV, UniProt P59594 14-1190).
Assay: not given
As for B12, the “bead binding signal (median fluorescence, fold over isotype control)” value was 1.21 fold over isotype control. Still for that read-out and setting: next, B13: 5.9 fold over isotype control.

A further assay addresses SARS-CoV-2 Spike (S) protein, wild type (SARS-CoV-2, UniProt P0DTC2 14-1208). Description: HT-SPR Carterra LSA; mAb coupled to chip, Spike in solution; 1:1 Langmuir fit.
As for B14, the affinity, expressed as Kd, was 0.482 nM; the off-rate constant (koff) (as a rule, the rate constant with which the complex falls apart) is 0.00034 s⁻¹; the kon (in general, the rate constant with which the complex forms) was determined as 706000 M⁻¹ s⁻¹.

B15: the Kd (commonly a measure of binding affinity in units of concentration) worked out at 0.717 nM, the off-rate constant (koff) was determined as 3.04e-05 s⁻¹ and the kon came out at 227000 M⁻¹ s⁻¹. B16: the Kd is no more than 0.0151 nM, the off-rate constant (koff) was no more than 1e-05 s⁻¹ and the kon was 664000 M⁻¹ s⁻¹. The corresponding values for B17 are no more than 0.0161 nM, no more than 1e-05 s⁻¹ and 653000 M⁻¹ s⁻¹. Taken in the same sequence, the figures for B18 were 0.0433 nM, 5.31e-05 s⁻¹ and 1.22e+06 M⁻¹ s⁻¹. Taken in the same sequence, the figures for B19 were 0.0439 nM, 2.19e-05 s⁻¹ and 500000 M⁻¹ s⁻¹. B20 came in with a Kd of 0.0319 nM, a koff of 1.36e-05 s⁻¹ and a kon of 443000 M⁻¹ s⁻¹. Taken in the same sequence, the figures for B21 were no more than 1.44 nM, no more than 1e-05 s⁻¹ and 6960 M⁻¹ s⁻¹.

The record behind these values is patent US20220356229A1 (published 2022).
